Laboratory results from patent US20050272649A1, “Conjoint administration of morphogens and ACE inhibitors in treatment of chronic renal failure” (priority 2002, published 2005).
“Also recorded” adds a separate entry of the source.

B1: OP-1: osteogenic protein-1 (OP-1, also known as BMP-7), morphogen of the OP/BMP family; OP-1 used interchangeably with sBMP-7 (protein)
chain: STGSKQRSQNRSKTPKNQEALRMANVAENSSSDQRQACKKHELYVSFRDLGWQDWIIAPEGYAAYYCEGECAFPLNSYMNATNHAIVQTLVHFINPETVPKPCCAPTQLNAISVLYFDDSSNVILKKYRNMVVRACGCH

Experiments:
hypertension = details: enalapril 20 mg per day; three-month study; cited from earlier work
[1] = test system: streptozotocin diabetic Sprague-Dawley rats; assay type: in vivo; details: preliminary / unpublished studies
[2] = test system: alloxan-induced diabetic Sprague-Dawley rats; assay: Alloxan-induced diabetic nephropathy model; assay type: in vivo, rat; details: for proteinuria level (in words) / serum creatinine level (in words): 12 weeks of treatment; for proteinuria level / serum creatinine level: 12 weeks; for proteinuria level: diabetic about 180; for serum creatinine level: diabetic about 115
Method: Similar to streptozotocin, alloxan kills pancreatic β cells and induces type I diabetes (for review, see Cheta et al. (1998) J Pediatr Endocrinol Metab 11: 11-9). Alloxan is also widely used to induce experimental diabetic nephropathy in animals (FIG. 25). Adult female Sprague-Dawley rats (weighing 200-250 g) were intraperitoneally injected with alloxan (70 mg/kg body weight) to induce hyperglycemia. Renal arteries were clamped just prior to injection to prevent direct nephrotoxicity, and then clamps were removed 5 minutes after injection. At week 16 when renal function declined, animals were treated with OP-1 (10 μg/kg body weight, 3×/week, or 30 μg/kg body weight, 1×/week), enalapril (100 mg/L in drinking water) or the combination of OP-1 and enalapril. Control animals without alloxan treatment were handled in all other ways like treated animals. The treatment duration was 12 weeks. All rats were sacrificed after […].

[3] = test system: streptozotocin-induced diabetic Sprague-Dawley rats; assay: Streptozotocin-induced diabetic nephropathy model (Example 3); assay type: in vivo, rat; details: for proteinuria level: OP-1 30 and 100 μg/kg, enalapril 50 and 100 mg/L, or combination, diabetic about 140 mg/day
Method: Streptozotocin kills pancreatic β cells and induces type I diabetes (for review, see Cheta et al. (1998) J Pediatr Endocrinol Metab 11:11-9). It is widely used to induce experimental diabetic nephropathy in animals (see FIG. 22). Adult female Sprague-Dawley rats (weighing 200-250 g) were intraperitoneally injected with streptozotocin (60 mg/kg body weight) to induce hyperglycemia. Hyperglycemic rats then received daily injections of insulin to maintain blood glucose between 200-400 mg/dL. At week 16 when renal function declined, animals were treated weekly with OP-1 (10, 30 or 100 μg/kg body weight), enalapril (50 or 100 mg/L in drinking water) or a combination of OP-1 and enalapril. Control animals without streptozotocin treatment were handled in all other ways like treated animals. Animals were sacrificed at week 32 post-streptozotocin treatment.

[4] = solubility of mature OP-1 with casein; assay type: physicochemical; details: addition of 0.2% casein; mature active form of OP-1
Text: Association of the mature morphogen dimer with a morphogen pro domain results in the pro form of the morphogen which typically is more soluble in physiological solutions than the corresponding mature form. In fact, endogenous morphogens are thought to be transported (e.g., secreted and circulated) in the mammalian body in this form. This soluble form of the protein can be obtained from culture medium of morphogen-secreting mammalian cells, e.g., cells transfected with nucleic acid encoding and competent to express the morphogen. Alternatively, a soluble species can be formulated by complexing the mature, morphogenically active polypeptide dimer (or an active fragment thereof) with a morphogen pro domain polypeptide or a solubility-enhancing fragment thereof. Solubility-enhancing pro domain fragments can be any N-terminal, C-terminal or internal fragment of the pro region of a member of the morphogen family that complexes with the mature polypeptide dimer to enhance stability and/or dissolubility of the resulting noncovalent or covalent complex. Typically, useful fragments are those cleaved at the proteolytic site Arg-Xaa-Xaa-Arg (SEQ ID NO: 30). A detailed description of soluble complex forms of morphogenic proteins, including how to make, test and use them, is described in WO 94/03600 (PCT US 93/07189). […]

[5] = test system: unilateral ureteral ligation in Sprague-Dawley rats; assay: Unilateral Ureteral Obstruction (UUO) renal fibrosis model; assay type: in vivo, rat; details: for loss of medullary tissue in the kidney: untreated about 24%
Text: This UUO model was employed essentially as described (Moller, et al. (1984) Virchows Arch 402: 209-237, the entire contents of which are incorporated herein by reference). Sprague-Dawley rats (about 250 g) underwent either a sham operation (ureter manipulated but not ligated) or unilateral ureteral ligation. Two ligatures, 5 mm apart, were placed in the upper two-thirds of the ureter over a section of polyethylene tubing placed around the ureter (see FIG. 17). The suture tied to obstruct the ureter was removed along with the tubing at day 5, relieving the obstruction. […] Uremia is avoided by the function of the contralateral kidney, which undergoes hypertrophy and hyperplasia as the obstructed kidney is destroyed. The renal injury of UUO is mediated in part through stimulation of renal angiotensin II production, which activates type-1 A-II Receptor and the downsteam TGF-β in a cascade of events culminating in tubulointerstitial inflammation and fibrosis. Inhibition of angiotensin II production by ACE inhibitors (or inhibition of A-II receptors) decreases expansion of the renal interstitium associated with fibrosis.
The effect of OP-1 on Renal fibrosis has been published (Hruska, et al. (2000) Am J Physiol Renal Physiol 279:F130-43, incorporated herein by reference), and a summarization is as follows. […] Additional effects of OP-1 have been observed in this rat UUO model.

Row | Molecule | decrease in diastolic blood pressure (hypertension) | decrease in systolic blood pressure (hypertension) | Enalapril response: dose and route of administration compared [1] | proteinuria level (in words) [2] | serum creatinine level (in words) [2] | serum creatinine level (in words) ([2]; listed as elalapril) | proteinuria level ([2]; enalapril 100 mg/L drinking water alone, or combination of OP-1 and enalapril) | proteinuria level [3] | increase in solubility [4] | serum creatinine level ([2]; OP-1 10 μg/kg 3×/week) | proteinuria level ([2]; OP-1 10 μg/kg 3×/week) | serum creatinine level ([2]; OP-1 30 μg/kg 1×/week) | proteinuria level ([2]; OP-1 30 μg/kg 1×/week) | loss of medullary tissue in the kidney ([5]; OP-1 at 100 μg/kg) | loss of medullary tissue in the kidney ([5]; OP-1 at 300 μg/kg) | loss of medullary tissue / medullary necrosis (in words) ([5]; UUO rats) | mean GFR ([3]; OP-1 100 μg/kg weekly, weeks 16-32, 32-week diabetic animals about 0.38) | glomerular filtration rate (in words) ([3]; weeks 16-32 treatment)
1 | CCOC(=O)[C@H](CCc1ccccc1)N[C@@H](C)C(=O)N1CCC[C@H]1C(=O)O [enalapril, N-(1-ethoxycarbonyl-3-phenylpropyl)-L-ananyl-L-proline, reference compound] | 7.2 mm Hg | 8.2 mm Hg | no difference in the Enalapril response between 5 and 20 mg/kg; also recorded: equally effective as more arduous means of administering Enalapril | reduces the proteinuria level; also recorded: reduce the preteinuria level | decreases the serum creatinine level | reduces the serum creatinine level at a lesser degree | ~140 mg/dL/24 hr | almost normal level; also recorded: significantly reduced the proteinuria level |  |  |  |  |  |  |  |  |  | 
2 | B1 |  |  |  | reduces the proteinuria level; also recorded: reduce the preteinuria level | decreases the serum creatinine level; also recorded: dramatically reduces the serum creatinine level |  |  | almost normal level; also recorded: reduces proteinuria; also recorded: significantly reduced the proteinuria level | 80% | about 65 μmole/L | about 80 mg/dL/24 hr | ~55 µmol/L | ~110 mg/dL/24 hr | about 16% | about 13% | reduces tubular atrophy and medullary necrosis; also recorded: significantly reduced the loss of medullary tissue | about 0.7 ml/min/100 g body weight | significantly increased the glomerular filtration rate; also recorded: increases the glomerular filtration rate
